For data set [1], the system named is myelin basic protein (MBP) (Millipore).
Data set [2] has as its target myelin basic protein (MBP) (Millipore). The experiment in a line: cell-based or functional assay.

ERK1/2 immunoprecipitated from SS RBCs: the “phosphorylation of MBP by immunoprecipitated ERK1/2 (anti-phosphoMBP immunoblot)” value in data set [1] was “ERK1/2 immunoprecipitated from sham-treated SS RBCs was capable of phosphorylating MBP to some extent”.

“ERK1/2 immunoprecipitated from SS RBCs (enzyme)” returned an MBP phosphorylation by ERK1/2 from epinephrine-treated SS RBCs compared to ERK1/2 from sham-treated cells (fold) in data set [2] of 2.1 fold.

Source of the values: patent US20140179700A1.
